Laboratory results taken from a protein production outcome set (Wang et al. 2014).

Assay: label from the status in PepcDB records

Question: For “MSSALLRVAYAYDRLRAHPPEVAGQIATAMASAVHPKGEEPVFLELGVGTGRIALPLIARGYRYIALDADAAMLEVFRQKIAGVDRKVQVVQADARAIPLPDESVHGVIVVHLWHLVPDWPKVLAEAIRVLKPGGALLEGWDQAEESPEWTLQERWRAFAAEEGFPVERGLHAKRLKEVEEALRCLGLKPRTREVARWREERTPREALEALSERLYSFTQGLPEPVHARVMERLWAWAEAELGDLDRPFPVEKRFLLRVSRLG”, which protein production is on record?
Answer: failed

Question: For “MEKLENFWTRDELNTFFDYVTPERDVEQFTMFRVLAYSGIRKGELLALTWKDINFEDNTLRVNKTLTQGLGGKLIVQPPKSRAGRRTIDLDDSTMRYLRQWKGVQRETFLGMGFNTNNVDQLVFASNRNHFRSMNTPTKWLNKAIKATGLKHISIHGFRHTHASLLYQSGVGLKETQQRLGHSRADSSVTLDVYTHTTEQQNVAALQRFENYVEAKLEHHHHHH”, which protein production is on record?
Answer: failed

Question: For “MNELTQSDNYQLLNRELAAPDPWGLDANPFERERHTQMLRLALAQGSISSALEVGCAAGAFTVQLAPHCKRLTVIDVVPQAIERSRRRIRGSPHISWIVSDVQQFSPDERFDLIVVAEVLYYIGGIAEMRGAVRNLVRMLAPDGYLVFGSARDANCRRWGHVAGAETILGMLNETLLEVERLECRGESVNEDCLLACFRNPFSAS”, which protein production is on record?
Answer: failed

Question: Which protein production does the source give for “MPALITYRTTVQEDWVDYNGHLRDAFYLLIFSYATDALMDRIGLDADSRGQSGNSLFTLEAHINYLHEVKLGTEVWVQTQILGFDRKRLHVYHSLHRAGFDEVLAASEQMLLHVDLAGPQSAPFGHTTVCRLNHLVEQQEGAQAPQYMGRTIKLPA” here?
Answer: not failed

Question: For “MTDDLLKPNRPHPLFKLATELGPLLVFFIVNAKFHLFAATGAFMVAVVAAVIASYVVTRHVPVMALVTAVVVLVFGTLTLVLHDETFIKMKPTIVYSLFGAVLAGGLLFGRSFIAIMFDQVFNLTAAGWRKLTLRWALFFFAMALLNEAVWRTQSTDFWVNFKVFGVVPLTMLFALLQMPLTKRYAAEPATLEQSAADEGDVSGR”, which protein production is on record?
Answer: not failed

Question: For “AVSFTGVSGVKNIVAVTACPTGVAHTFMSAEAIEAYAKKQGWNVKVETRGQVGAGNEITVEEVAAADLVFVAADIDVPLDKFKGKPMYRTSTGLALKKTEQEFDKAFKEAKIF”, which protein production is on record?
Answer: failed

Question: For “MEPEEERIRYSQRLRGTMRRRYEDDGISDDEIEGKRTFDLEEKLHTNKYNANFVTFMEGKDFNVEYIQRGGLRDPLIFKNSDGLGIKMPDPDFTVNDVKMCVGSRRMVDVMDVNTQKGIEMTMAQWTRYYETPEEEREKLYNVISLEFSHTRLENMVQRPSTVDFIDWVDNMWPRHLKESQTESTNAILEMQYPKVQKYCLMSVRGCYTDFHVDFGGTSVWYHIHQGGKVFWLIPPTAHNLELYENWLLSGKQGDIFLGDRVSDCQRIELKQGYTFVIPSGWIHAVYTPTDTLVFGGNFLHSFNIPMQLKIYNIEDRTRVPNKFRYPFYYEMCWYVLERYVYCITNRSHLTKEFQKESLSMDLELNGLESGNGDEEAVDREPRRLSSRRSVLTSPVANGVNLDYDGLGKTCRSLPSLKKTLAGDSSSDCSRGSHNGQVWDPQCAPRKDRQVHLTHFELEGLRCLVDKLESLPLHKKCVPTGIEDEDALIADVKILLEELANSDPKLALTGVPIVQWPKRDKLKFPTRPKVRVPTIPITKPHTMKPAPRLTPVRPAAASPIVSGARRRRVRCRKCKACVQGECGVCHYCRDMKKFGGPGRMKQSCVLRQCLAPRLPHSVTCSLCGEVDQNEETQDFEKKLMECCICNEIVHPGCLQMDGEGLLNEELPNCWECPKCYQEDSSEKAQKRKMEESDEEAVQAKVLRPLRSCDEPLTPPPHSPTSMLQLIHDPVSPRGMVTRSSPGAGPSDHHSASRDERFKRRQLLRLQATERTMVREKENNPSGKKELSEVEKAKIRGSYLTVTLQRPTKELHGTSIVPKLQAITASSANLRHSPRVLVQHCPARTPQRGDEEGLGGEEEEEEEEEEEDDSAEEGGAARLNGRGSWAQDGDESWMQREVWMSVFRYLSRRELCECMRVCKTWYKWCCDKRLWTKIDLSRCKAIVPQALSGIIKRQPVSLDLSWTNISKKQLTWLVNRLPGLKDLLLAGCSWSAVSALSTSSCPLLRTLDLRWAVGIKDPQIRDLLTPPADKPGQDNRSKLRNMTDFRLAGLDITDATLRLIIRHMPLLSRLDLSHCSHLTDQSSNLLTAVGSSTRYSLTELNMAGCNKLTDQTLIYLRRIANVTLIDLRGCKQITRKACEHFISDLSINSLYCLSDEKLIQKIS”, which protein production is on record?
Answer: failed

Question: With “PVVVSEAGASVYSASEAAAREFPDMDVSLRGAVSIARRLQDPLAELVKIDPKAIGVGQYQHDVNQTALAKTLDAVVEDAVNAVGVDLNTASVPLLARVAGVSPTIAENIVHYRDEHGAFVNRTALKKVPRLGPKAFEQCAGFLRISGGKDPLDASAVHPEAYPVVRKMSEATGLSVEKLIGNSHVLSSLRPSDFA” as the sequence, how does the protein production read?
Answer: failed

Question: With “MRRLLITILIFLLSNAGCCAPVFEIIPLGVYGGLKDGNLSAYLIKAIESKNYTALDGGTLVRGLEVAVDRQSLPSKKVDDLLQKHIPAYLISHAHLDHVMGLVMAQPELREKQTIMAREETMQALQDNIFNWSVWGNFGDSGAIPHLNFQHYQTLPLLQWLAIPDTDLHVKVFPLSHSGMASSAFLIRYKTEYALYFGDTGADRIEKSTNMENIWKEIAPLIRNKQLHAIMLECSFLNSQPDDKLFGHLKPNLFMSELRHLASIVDPFDSRNSLRGLPVVVTHIKPKLADFSNTNEDTEKQVINELSQENDIGVELIKPEQGITLSL” as the sequence, how does the protein production read?
Answer: failed

Question: Which protein production does the source give for “MDRTHERVLQAMAENLGEGLPRAIPLLAEKAPGLLLEHGRSWTYAMPEKGALDEKTRTLILLGIALATGSEACVKAMAHRAKRLGLSKEALLETLKIARQAQANAVLGHAAPLLEVL” here?
Answer: not failed

Question: With “MLITLPYFLTRKTLPGYIIGGDTLVHAAIARGIYLGRNPFLDQTYNVYPSWYPFLYHLIVAVTSKVFQISIEGAMLLLQATLAILGCIVFFYVAKNLWGSTAGIMAMAFSLMFLPFHRYPNPKELIPIFGALFILYFVKERWVLSGIILGLGLWSHYASMFPLFVLPLTVYIFTRRKEVITPLLISTIVFLPFAINIISHADHIIPKVEDIYAFWKTDTLEKKLLSLLPPIYLVPFLLLSLYKFYKRRDYEGTVLFLSVVTIWGLRLLPESLKPFGIQIWSTRFTVPLPTIYLLLSAYGISEIKITSKDIKTIFLGILLFLIPIASALNFWEAIKRDPFIWVSEFELKEYFPEEHFIEVSEWIKANTERDNLIATSEEAGMMINALTGRPIMATLYGHGNTFLDNEIRRKDLELLFTADCKEKAKIISKYKIKYIVLDTFVYKRWEVKDMSCIAEPVYKVENVTILRVNLNITYTNKGEIRMNKKLFWLLLIAFVVNFSVIYGRKNPCWRKWRRYDNSHGHD” as the sequence, how does the protein production read?
Answer: failed

Question: Which protein production does the source give for “MVWDRATPFVIDLNVGAEDIDGLGHANNAVYVSWLERCAWRHSQFLGLDLTEYQRLDRAMAVVRHEIDYLASAYESDELQLATWITDWDRRLKMTRCFQLKRPADNLTLLRAQTTFVCIELSSGRPKRMPAEFIEGYGAAIPLEHHHHHH” here?
Answer: failed

Question: For “MWPFRKEQERGGWLIGWNPHGLLVIVVAVVHDPRVENATAALNKLKESEGDIRATAHRKQHKDVPSATSLLILGWMHSKQATLDKSEYADAWVRSQHSRAELWLELNEGPLLHQLYCCGSPVQPCHLHVLRSDPTVSYAVTSTAFSAVARHDRGDLVKLVEGKMQPICVEGANSTLEGVLLPSHMVHSAGPRTKMRRMVGSDPLTQDEEEKQEGAKQRTEDDRVSVGSSGSGEGSTESQSVRGSETPRFGGELHPRLDFPTSTDYGELSSLLRASAYGKILRELCENKVSNATDGTAATARLCAYWKNCGNRFTGFLTKILVVFHLVLKWPGNVSYTAALLEFRLRMVIHWLLLLRGDTRVCCLHPVLPHIQHNDPALRRFCVVDFLVRFAVDTICGMLLSLLLSHGSGLLVTKAVSWCRWLLYDLHMEYMDWFEGWPAGLKMNGDLSMTLSCIAKAVLEASWASVEDLSNVGLFYKLLIFVAPLGASCAFAFVADLCLIASLHLYLVFHSVSLPYRFARFMLRNLFLQFQGKKHNPLRHRTDTYDFPVEQTLVATVIFTIIVFLLPTLAVYHVYFALICIAVWLLQGALLVAAHLTLYLPLYPLFYWALYRRQWPGGVALTGPKVLSTPQHSRALNPFARGSLTVEFGVVSKPLELRVLLADFLLVAHVVGRLHPFDMIVAVFKVRRWERTNPGKCLVPPLPADIMPLTGMTLPKTAVA”, which protein production is on record?
Answer: failed

Question: For “TAPTLAEEVKQQSDGSVIIEGSANLRDLNKLFNWHLPINEVRTFNGLILEHLEKIPIEGTQFRLNQLNITVLEVADNMVKKVKVELIE”, which protein production is on record?
Answer: not failed
